The values that follow are results of earlier work, collected in publication PMC3567247.

Usually Kd stands for the free concentration of one partner at which half of the binding sites on the other are occupied at equilibrium, for simple one-to-one binding.

Like-named read-outs stand apart in the source and are kept apart here.

Some targets named below: TACI (Homo sapiens) (UniProt O14836); CD40L (Homo sapiens) (UniProt P29965); CD40 (Homo sapiens) (UniProt P25942); Im9 (Escherichia coli) (UniProt P13479); Ribonuclease Inhibitor (UniProt P13489); BPTI (Bos taurus) (UniProt P00974).
The target of series [1] is BCMA (Homo sapiens) (UniProt Q02223). Nature of the series: surface plasmon resonance. A general note: In SPR one partner is held on a chip, and binding of the other changes the refractive index at the surface.
Chain of BCMA (Homo sapiens) (Q02223 whole entry): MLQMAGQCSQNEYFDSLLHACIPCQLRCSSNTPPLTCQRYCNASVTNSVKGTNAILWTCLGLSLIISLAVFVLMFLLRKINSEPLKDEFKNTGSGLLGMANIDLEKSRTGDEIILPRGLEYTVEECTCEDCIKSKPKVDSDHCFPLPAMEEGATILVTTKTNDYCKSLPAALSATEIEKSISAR
Series [2] addresses BR3 (Homo sapiens) (UniProt Q96RJ3). Nature of the series: surface plasmon resonance.
The target is the same in series [3].
The target in series [4] is BCMA (Homo sapiens) (UniProt Q02223).
For series [5], the target named is Barstar (Bacillus amyloliquefaciens) (UniProt P11540).
Chain of Barstar (Bacillus amyloliquefaciens) (P11540 2-90): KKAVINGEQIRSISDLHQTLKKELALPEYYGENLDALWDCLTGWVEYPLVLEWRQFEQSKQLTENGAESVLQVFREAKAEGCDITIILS
In series [6] the target is Ribonuclease Inhibitor (Sus scrofa) (UniProt P10775).
Chain of Ribonuclease Inhibitor (Sus scrofa) (P10775 whole entry): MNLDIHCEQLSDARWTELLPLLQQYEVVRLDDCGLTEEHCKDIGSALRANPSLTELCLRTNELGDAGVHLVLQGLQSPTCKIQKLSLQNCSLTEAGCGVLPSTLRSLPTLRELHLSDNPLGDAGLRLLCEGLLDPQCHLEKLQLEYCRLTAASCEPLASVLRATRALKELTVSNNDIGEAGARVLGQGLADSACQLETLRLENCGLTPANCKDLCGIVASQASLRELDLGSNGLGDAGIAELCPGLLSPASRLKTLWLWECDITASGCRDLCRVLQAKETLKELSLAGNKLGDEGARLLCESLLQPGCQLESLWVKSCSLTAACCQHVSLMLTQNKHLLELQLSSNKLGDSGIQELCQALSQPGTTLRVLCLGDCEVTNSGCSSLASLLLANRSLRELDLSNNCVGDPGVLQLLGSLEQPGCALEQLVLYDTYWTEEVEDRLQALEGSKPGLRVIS

Chain of BR3 (Homo sapiens) (Q96RJ3 whole entry): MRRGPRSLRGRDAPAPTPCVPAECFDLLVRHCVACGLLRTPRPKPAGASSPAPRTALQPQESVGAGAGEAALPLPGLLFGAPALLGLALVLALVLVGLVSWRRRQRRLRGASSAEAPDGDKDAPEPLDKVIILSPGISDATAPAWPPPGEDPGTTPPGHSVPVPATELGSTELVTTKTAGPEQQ
Chain of APRIL (O75888 105-250): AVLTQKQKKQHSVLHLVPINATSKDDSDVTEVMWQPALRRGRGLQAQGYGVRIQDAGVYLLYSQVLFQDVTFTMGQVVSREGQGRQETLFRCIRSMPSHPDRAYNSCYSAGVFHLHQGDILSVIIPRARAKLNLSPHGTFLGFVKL
Chain of Ribonuclease A (P61823 27-150): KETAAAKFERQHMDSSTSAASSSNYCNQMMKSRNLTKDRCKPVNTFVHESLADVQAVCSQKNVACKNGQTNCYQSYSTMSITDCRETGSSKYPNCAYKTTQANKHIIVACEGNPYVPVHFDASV
Chain of Im9 (Escherichia coli) (P13479 whole entry): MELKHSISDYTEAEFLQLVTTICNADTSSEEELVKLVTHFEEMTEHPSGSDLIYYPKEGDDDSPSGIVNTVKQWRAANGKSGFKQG
Chain of CD40 (Homo sapiens) (P25942 21-277): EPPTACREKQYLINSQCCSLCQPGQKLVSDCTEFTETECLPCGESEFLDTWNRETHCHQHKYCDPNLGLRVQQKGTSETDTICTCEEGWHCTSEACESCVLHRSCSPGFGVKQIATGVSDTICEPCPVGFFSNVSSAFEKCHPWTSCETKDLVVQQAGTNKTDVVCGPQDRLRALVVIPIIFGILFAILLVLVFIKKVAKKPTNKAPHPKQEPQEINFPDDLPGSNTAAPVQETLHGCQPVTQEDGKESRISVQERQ
Chain of CD40 (P25942 21-277): as above
Chain of CD40L (Homo sapiens) (P29965 113-261): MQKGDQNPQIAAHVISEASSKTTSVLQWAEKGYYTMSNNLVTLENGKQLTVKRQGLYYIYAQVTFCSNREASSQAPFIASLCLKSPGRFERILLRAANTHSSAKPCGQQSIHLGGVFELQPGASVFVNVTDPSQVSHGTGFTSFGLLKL
Chain of CD40L (P29965 113-261): as above
Chain of Colicin E9 nuclease (P09883 449-582): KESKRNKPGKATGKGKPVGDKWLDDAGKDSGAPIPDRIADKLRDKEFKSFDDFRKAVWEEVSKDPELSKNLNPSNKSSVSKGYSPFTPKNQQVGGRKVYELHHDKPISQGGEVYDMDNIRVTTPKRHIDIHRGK
Chain of TACI (Homo sapiens) (O14836 whole entry): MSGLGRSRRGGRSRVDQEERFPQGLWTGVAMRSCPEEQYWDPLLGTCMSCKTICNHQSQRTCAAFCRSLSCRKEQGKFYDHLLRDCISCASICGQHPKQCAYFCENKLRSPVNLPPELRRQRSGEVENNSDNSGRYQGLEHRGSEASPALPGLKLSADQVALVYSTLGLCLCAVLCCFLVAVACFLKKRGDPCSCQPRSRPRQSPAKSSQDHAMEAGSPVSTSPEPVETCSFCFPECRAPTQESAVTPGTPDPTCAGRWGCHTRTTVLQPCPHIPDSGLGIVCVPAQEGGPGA
Chain of Barnase (P00648 48-157): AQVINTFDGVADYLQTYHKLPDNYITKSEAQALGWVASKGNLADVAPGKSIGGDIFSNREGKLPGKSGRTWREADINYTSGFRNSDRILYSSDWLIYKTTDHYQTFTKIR
Chain of Ribonuclease Inhibitor (P13489 2-461): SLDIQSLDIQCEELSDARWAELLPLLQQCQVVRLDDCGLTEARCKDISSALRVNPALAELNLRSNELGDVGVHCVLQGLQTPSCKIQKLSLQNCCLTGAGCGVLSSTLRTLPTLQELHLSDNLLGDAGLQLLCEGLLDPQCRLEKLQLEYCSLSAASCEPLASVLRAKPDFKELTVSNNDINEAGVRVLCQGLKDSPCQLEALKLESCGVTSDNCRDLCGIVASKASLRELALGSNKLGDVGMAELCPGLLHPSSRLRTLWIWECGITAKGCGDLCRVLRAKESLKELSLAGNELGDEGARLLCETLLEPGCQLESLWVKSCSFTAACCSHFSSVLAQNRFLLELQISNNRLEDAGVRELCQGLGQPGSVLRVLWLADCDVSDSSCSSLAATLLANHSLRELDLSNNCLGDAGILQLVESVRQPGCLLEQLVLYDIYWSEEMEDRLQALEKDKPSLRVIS

In the case of APRIL (from UniProt O75888), the Kd was 15 nM in the series with BCMA (Homo sapiens) [1] and more than 3000 nM in the series with BR3 (Homo sapiens) [2].

As to BAFF (from UniProt Q9Y275), the dissociation constant (Kd) was 15 nM in the series with BR3 (Homo sapiens) [3], 13 nM with TACI (Homo sapiens) and 1500 nM with BCMA (Homo sapiens) [4].

Take Barnase (from UniProt P00648): the Kd in series [5] is 0.0002 nM.

For CD40 (from UniProt P25942), in the series with CD40L (Homo sapiens), the Kd was 13000 nM.

Turning to CD40L (from UniProt P29965), in the series with CD40 (Homo sapiens), the Kd is 13000 nM.

Regarding “Colicin E9 nuclease (from UniProt P09883)”, the Kd with Im9 (Escherichia coli) is 0.024 pM.

Consider Ribonuclease A (from UniProt P61823), for which the Kd (in series [6]; in the series with Ribonuclease Inhibitor) was 0.059 pM throughout.

With trypsinogen (from UniProt P00760), the Kd with BPTI (Bos taurus) was 0.06 pM.
